Experimental data published in publication PMC4592070.

Biological target: ErbB1-mCitrine (UniProt P00533)
Assay: FRET or BRET; confocal time-domain FLIM-FRET in live COS-7 cells at 37°C; donor ErbB1-mCitrine, acceptor an mCherry-labeled PTP1B chimera; cells starved overnight, recorded 2 min before and 14 min after EGF (100 ng/mL)

average donor fluorescence lifetime (donor-only control 3.02 ns) [ns]	Substance
2.89	mCherry-PTP1B^D/A-ER (enzyme)
2.96	mCherry-PTP1B^D/A-OMM (enzyme)
